Measured values taken from PMC3326319.

T1: PhNob1Zn (Pyrococcus horikoshii, UniProt O58440 121-161)
T1 chain: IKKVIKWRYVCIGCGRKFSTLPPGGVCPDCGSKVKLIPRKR

T2: PhNob1 (Pyrococcus horikoshii, UniProt O58440 1-161)
T2 sequence: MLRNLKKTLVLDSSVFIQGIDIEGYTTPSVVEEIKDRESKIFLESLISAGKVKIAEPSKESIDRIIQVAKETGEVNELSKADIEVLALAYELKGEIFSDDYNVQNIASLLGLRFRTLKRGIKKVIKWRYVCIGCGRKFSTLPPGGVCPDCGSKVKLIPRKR


Experiments:
[1] = molecular target: T1, PhNob1Zn; assay: fluorescence anisotropy
[2] = molecular target: T2, PhNob1; assay: fluorescence anisotropy
[3] = molecular target: T1, PhNob1Zn; assay: NMR titration

| Binder | Kd [1] | Kd [2] | Kd [3] |
| --- | --- | --- | --- |
| GACUGCCGGCGAUAAGCCGGAGGAAG (structured_RNA) [PhH40 (helix 40)] | 2300 ± 100 nM | 2000 ± 100 nM | – |
| UACAGGGCCCAUUGGGGCCCUGUA (structured_RNA) [ScH16 (stabilized)] | 1500 ± 200 nM | – | – |
| CCGGCGAUAAGCCGG (structured_RNA) [PhH40short (H40S)] | 3100 ± 200 nM | – | – |
| GACUGCCGGCGAUAAGCCGGAGGAAG (structured_RNA) [PhH40 unlabeled (gel filtration, NMR)] | – | – | < 1000 nM |
